Assay results published in the supplement of paper PMC7125110.
± gives the standard error. Fewer inactive variants are shown than the library holds.

B1: glmS ribozyme (parent)
chain: AUAAAAGCGCCAGAACUACAGAAAUGUAGUUGACGAGGAGGAGGUUUAUCGAAUUUUCGGCGGAUGCCUCCAAA

Columns and labels:
Conditions in all cases: with glucosamine-6-phosphate
glucosamine-6-phosphate [1] = variants of: B1; test: self-cleavage kobs at 40 uM GlcN6P; higher = faster cleavage; RNA array
Outline: (§1)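 Over ~14 h at 37 °C, tiles were imaged as glucosamine-6-phosphate (40 μM to 10 mM) in HEPES/KCl/Mg(OAc)2 buffer flowed across sequenced MiSeq chips. The chips carried barcoded ribozyme variants transcribed in situ by E. coli RNA polymerase and tracked with a hybridised Cy3 probe. After normalisation to baseline and to non-cleaving reference variants, one- or two-exponential decay fits of per-tile medians gave kobs. kcat and KM followed from weighted Michaelis–Menten fits across concentrations.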

glucosamine-6-phosphate [2] = variants of: B1; test: self-cleavage kobs at 640 uM GlcN6P; higher = faster cleavage; RNA array
Outline: as §1

glucosamine-6-phosphate [3] = variants of: B1; test: self-cleavage kobs at 2500 uM GlcN6P; higher = faster cleavage; RNA array
Outline: as §1

glucosamine-6-phosphate [4] = variants of: B1; test: self-cleavage kobs at 10000 uM GlcN6P; higher = faster cleavage; RNA array
Outline: as §1

glucosamine-6-phosphate [5] = variants of: B1; test: self-cleavage kobs at 160 uM GlcN6P; higher = faster cleavage; RNA array
Outline: as §1

Row | Variant | self-cleavage kobs at 40 uM GlcN6P (glucosamine-6-phosphate [1]) [s⁻¹] | self-cleavage kobs at 640 uM GlcN6P (glucosamine-6-phosphate [2]) [s⁻¹] | self-cleavage kobs at 2500 uM GlcN6P (glucosamine-6-phosphate [3]) [s⁻¹] | self-cleavage kobs at 10000 uM GlcN6P (glucosamine-6-phosphate [4]) [s⁻¹] | self-cleavage kobs at 160 uM GlcN6P (glucosamine-6-phosphate [5]) [s⁻¹]
1 | G51C C61A | < 1e-05 | < 1e-05 | < 1e-05 | < 1e-05 | 
2 | G66A C70G | 8.19e-05 ± 1.3e-05 | 0.000305 ± 7.2e-05 | 0.000267 ± 7.7e-05 | 0.00273 ± 0.00055 | 7.92e-05 ± 2.2e-05
3 | U30A G43C | < 1e-05 | < 1e-05 |  | < 1e-05 | 
4 | A6G A15U G59A | < 1e-05 |  | < 1e-05 | < 1e-05 | 
5 | C8G A15C | < 1e-05 | < 1e-05 | < 1e-05 | < 1e-05 | < 1e-05
6 | C16G U69C | 5.13e-05 ± 2e-05 |  |  | 0.000195 ± 5.5e-05 | 
7 | A15U C71U | 0.000165 ± 1.3e-05 | 0.00103 ± 9e-05 | 0.00528 ± 0.00075 | 0.00793 ± 0.0013 | 0.00037 ± 4.8e-05
8 | A36G U56A | < 1e-05 | < 1e-05 |  |  | 
9 | G44C C71A | < 1e-05 | < 1e-05 |  |  | < 1e-05
10 | G62U C70A | < 1e-05 |  |  |  | 
11 | A39G C50G C58A | 0.000142 ± 4.6e-05 |  |  |  | 
12 | A42G A52U C70A | < 1e-05 |  |  |  | < 1e-05
13 | A6C U31A | < 1e-05 | < 1e-05 |  | 3.99e-05 ± 1.3e-05 | 
14 | G13C G63U | < 1e-05 |  | < 1e-05 |  | 
15 | G32U C34G C68G | 4.91e-05 ± 1.8e-05 |  |  | 3.41e-05 ± 1.6e-05 | 
16 | G32C U65A C67A | 0.000151 ± 3.6e-05 | 0.000426 ± 0.0001 |  | 0.00023 ± 5.9e-05 | 
17 | G32A U55G | 4.93e-05 ± 1.7e-05 | 0.000327 ± 5.7e-05 | 0.000627 ± 0.00014 | 0.00326 ± 0.00054 | 
18 | U30C A33G G66U C71G | < 1e-05 |  |  | < 1e-05 | 
19 | C58A U65A C67G | < 1e-05 |  |  |  | 
20 | U54G G62C | < 1e-05 | < 1e-05 | < 1e-05 | < 1e-05 | < 1e-05
21 | G13U G32A C50U | < 1e-05 |  | < 1e-05 | < 1e-05 | 
22 | U49C G63A C67G | < 1e-05 |  |  | < 1e-05 | 
23 | G38A A52U C71U | < 1e-05 |  |  | < 1e-05 | 

Row | Variant | self-cleavage kobs at 40 uM GlcN6P (glucosamine-6-phosphate [1]) [s⁻¹] | self-cleavage kobs at 640 uM GlcN6P (glucosamine-6-phosphate [2]) [s⁻¹] | self-cleavage kobs at 2500 uM GlcN6P (glucosamine-6-phosphate [3]) [s⁻¹] | self-cleavage kobs at 10000 uM GlcN6P (glucosamine-6-phosphate [4]) [s⁻¹] | self-cleavage kobs at 160 uM GlcN6P (glucosamine-6-phosphate [5]) [s⁻¹]
24 | U56A C67U | 0.000175 ± 1.9e-05 | 0.000938 ± 8.9e-05 | 0.00474 ± 0.00085 | 0.00679 ± 0.0012 | 0.000452 ± 6.1e-05
25 | G38C U55A G63U | < 1e-05 | < 1e-05 | < 1e-05 |  | 
26 | G7U A36U G40C | < 1e-05 |  | < 1e-05 | < 1e-05 | 
27 | A12U A42G U47A C68U | 0.000117 ± 4.6e-05 |  |  | 0.00634 ± 0.0021 | 
28 | A12U U57C G59C | < 1e-05 | < 1e-05 | < 1e-05 |  | 
29 | C11G C68A | < 1e-05 |  |  |  | 
30 | G7A G32A C58A | < 1e-05 |  |  | < 1e-05 | 
31 | C16U C67U | 0.000314 ± 3.3e-05 | 0.00186 ± 0.00024 | 0.00294 ± 0.00071 | 0.0126 ± 0.0021 | 0.000412 ± 0.00014
32 | G41C C58U G59C | < 1e-05 |  |  |  | 
33 | G38U G41C | < 1e-05 | < 1e-05 | < 1e-05 | < 1e-05 | < 1e-05
34 | C8U G44U | < 1e-05 | < 1e-05 | < 1e-05 | < 1e-05 | < 1e-05
35 | A52C G62U | < 1e-05 |  |  | < 1e-05 | < 1e-05
36 | G41A G43C U49A C50G C58A | < 1e-05 |  |  |  | 
37 | C8G C50A C61G G63A C71G | 8.24e-05 ± 3.5e-05 |  |  | 0.000367 ± 0.00014 | 
38 | G13A A53U | < 1e-05 | 7.57e-05 ± 2.4e-05 | 0.000174 ± 4.1e-05 |  | 
39 | U31A U45G U54G C58A C61A | < 1e-05 |  |  | < 1e-05 | < 1e-05
40 | A6U A33U A36G G38C U46G C61U | < 1e-05 |  |  |  | 
41 | G13U C16U C19A G40U | < 1e-05 | < 1e-05 |  | < 1e-05 | < 1e-05
42 | C10U C61U | < 1e-05 | < 1e-05 |  | < 1e-05 | 
43 | C8U G29U | < 1e-05 | < 1e-05 | < 1e-05 | < 1e-05 | < 1e-05
44 | C8G G37C C67G | < 1e-05 |  | < 1e-05 | < 1e-05 | 
45 | G29U G37C A42U | < 1e-05 | < 1e-05 | < 1e-05 |  | 
